Measurements from publication PMC3680732.

Target: T1, HOT1 DBD (crystal) (human, UniProt Q6NT76 233-345)
T1 sequence: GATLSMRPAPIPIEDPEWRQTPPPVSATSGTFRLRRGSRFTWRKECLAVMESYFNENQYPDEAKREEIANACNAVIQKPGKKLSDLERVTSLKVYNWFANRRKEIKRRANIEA
Assay: crystal structure

B1: T1/T2 telomeric crystal duplex (dsDNA)
DNA 1: CTGTTAGGGTTAGGGTTAG
DNA 2: TCTAACCCTAACCCTAACA
- binding result: binds
